Test results reported in patent US20060280645A1, “Method for terminal sterilization of transdermal delivery devices” (priority 2005, published 2006).

Experiment: Terminal sterilization by e-beam irradiation: BNP purity and degradation products by RP-HPLC
Type: physicochemical
Conditions: best performing system (Example 4)
Description: FIGS. 14-16 detail the major degradation pathways for BNP coated on microprojections for all conditions treated by e-beam. […] All modes of degradation are reduced for the microprojection members packaged with desiccant and pre-dried retainer rings and purged with argon.
In this example, methionine from JT Baker (Phillipsburg, N.J.) was added to the BNP formulations in the amount of 1% by weight. These coating formulations were then irradiated using either e-beam or gamma radiation at varying temperatures and under varying atmospheric conditions. FIGS. 17-20 show the purity and degradation of the samples following gamma irradiation and FIGS. 21-24 show the purity and degradation of the samples following e-beam irradiation.
Further, systems packaged with pre-dried retainer rings performed better than systems stored with desiccant when terminally sterilized by e-beam. The best performing system retained 95.1% of the BNP purity, representing only approximately a 2% drop from the initial material purity.

**Q.** With BNP as the substance, how does the BNP purity retained read?
**A.** Its BNP purity retained is 95.1%.

**Q.** What about the “drop from the initial material purity” value of the same substance?
**A.** The value was roughly 2%.
